# Experimental data published in US20240277803A1, “NME INHIBITORS AND METHODS OF USING NME INHIBITORS” (Minerva Biotechnologies Corporation, priority 2013, published 2024).
# Assays:
# Assay type in all cases: cell-based
# [1] = system: Human stem cells (iPS); assay: human iPS stem cell culture in NME7-AB or NM23-H1 dimers
# Description: Testing recombinant NME7 for ability to maintain pluripotency and inhibit differentiation. A soluble variant of NME7, NME7-AB, was generated and purified. Human stem cells (iPS cat #SC101a-1, System Biosciences) were grown per the manufacturer's directions in 4 ng/ml bFGF over a layer of mouse fibroblast feeder cells for four passages. These source stem cells were then plated into 6-well cell culture plates (Vita™, Thermo Fisher) that had been coated with 12.5 ug/well of a monoclonal anti-MUC1* antibody, MN-C3. Cells were plated at a density of 300,000 cells per well. The base media was Minimal Stem Cell Media consisting of: 400 ml DME/F12/GlutaMAX I (Invitrogen #10565-018), 100 ml Knockout Serum Replacement (KO-SR, Invitrogen #10828-028), 5 ml 100×MEM Non-essential Amino Acid Solution (Invitrogen#11140-050) and 0.9 ml (0.1 mM) β-mercaptoethanol (55 mM stock, Invitrogen #21985-023). The base media can be any media. In a preferred embodiment, the base media is free of other growth factors and cytokines. To the base media was added either 8 nM of NME7-AB or 8 nM NM23-H1 refolded and purified as stable dimers. Media was changed every 48 hours and due to accelerated growth had to be harvested and passaged at Day 3 post-plating. FIGS. 9 and 10 document the day by day comparison of growth in NM23-H1 dimers to growth in NME7 monomers. […] Cell counts at the first harvest verified that culture in NME7 produced 1.4-times more cells than culture in NM23-H1 dimers.
# [2] = system: A panel of cancer cells; assay: PCR of stem and cancer stem cell markers in cancer cells cultured in NME proteins; settings: cell type not given
# Description: Another function that NME1 and NME7 have is the ability to transform cancer cells to the more metastatic cancer stem cell state, also called tumor initiating cells. A panel of cancer cells were cultured in a serum-free minimal base media with human NME7-AB or human NME1 dimers (‘NM23’ in figures) as the only growth factor or cytokine. After several days in this media, cells began to float off the surface and continued to grow in solution. The ‘floaters’ were collected and separately analyzed by PCR. Cells in other wells were treated with a rho kinase inhibitor (‘Ri in figures’). Quantitative PCR measurements show an increase of the cancer stem cell markers, some of which used to be thought of as stem cell markers only (Miki J et al 2007, Jeter C R et al 2011, Hong X et al 2012Faber A et al 2013, Mukherjee D et al 2013, Herreros-Villanueva M et al, 2013, Sefah K et al, 2013; Su H-T et al 2013). […] We observed a more modest, but trending, increase in markers of cancer stem cells and metastasis even in cells that were MUC1-negative (FIG. 47). We therefore conclude that NME7 likely is able to enter these cells by a route other than MUC1* wherein it can still act as a transcription factor and affect the expression levels of these genes. […] However, many cancers mutate NME1 so that it resists the formation of the self-replication limiting hexamer. Unlike NME1, NME7 is always active.
# Standard methods were used to perform RT-PCR. The primers used are listed below: RNA was isolated using the Trizol® Reagent (Invitrogen) and cDNA was reverse transcribed with Random Hexamers (Invitrogren) using Super Script II (Invitrogen) and subsequently assayed for the genes FOXA2, XIST, KLF2, KLF4, NANOG and OCT4, using Applied Biosystems gene expression assays (OCT4 P/N Hs00999634_gH, Nanog P/N Hs02387400_g1, KLF2 P/N Hs00360439_g1, KLF4 P/N Hs00358836_m1, FOXa2 P/N Hs00232764_m1, OTX2 P/N Hs00222238_m1, LHX2 P/N Hs00180351_m1, XIST P/N Hs01079824 ml and GAPDH P/N 4310884E), on an Applied Biosystems 7500 real-time instrument. Each sample was run in triplicate. Gene expression was normalized to GAPDH. Data are expressed as a fold change relative to control.
# [3] = system: T47D breast cancer cells; assay: RT-PCR of T47D cells cultured in 2i inhibitors and/or NME7-AB (FIGS. 48, 49)
# Description: 2i inhibitors, which are small molecule inhibitors of GSK3-beta and MEK of the MAP kinase signaling pathway, have been reported (Silva J et al, 2008) to revert mouse primed stem cells to the naïve state. We wondered whether these inhibitors could also revert human cancer cells to the cancer stem cell state. T47D breast cancer cells were cultured for 10 days in a serum-free minimal base media with the 2i inhibitors added or in the same base media with human recombinant NME7-AB added, or both NME7-AB and 2i. […] The relative potency of inducing the cancer stem cell markers was NME7>NME7+2i>2i (FIG. 48).
molecule,measurement,setting,value
"NME7-AB: recombinant human NME7 of NDPK A and B domains without the DM10 leader sequence, ~33 kDa (SEQ ID NO:39) (protein, listed as Homo sapiens, Human NME7-AB) MEKTLALIKPDAISKAGEIIEIINKAGFTITKLKMMMLSRKEALDFHVDHQSRPFFNELIQFITTGPIIAMEILRDDAICEWKRLLGPANSGVARTDASESIRALFGTDGIRNAAHGPDSFASAAREMELFFPSSGGCGPANTAKFTNCTCCIVKPHAVSEGLLGKILMAIRDAGFEISAMQMFNMDRVNVEEFYEVYKGVVTEYHDMVTEMYSGPCVAMEIQQNNATKTFREFCGPADPEIARHLRPGTLRAIFGKTKIQNAVHCTDLPEDGLLEVQYFFKILDN","stem cell growth, pluripotency and differentiation",[1]; 8 nM in minimal media over MN-C3 surface,fully supported human stem cell growth
same,cells produced relative to culture in NM23-H1 dimers (cell counts at first harvest),"[1]; 8 nM, Day 3 post-plating",1.4 times
same,up-regulation of KLF4,[2],4 X
same,up-regulation of MUC1,[2],10 X
same,up-regulation of NANOG,[2],~10 X
same,up-regulation of OCT4,[2],~50 X
same,up-regulation of SOX2,[2],> 150 X
same,up-regulation of cancer stem cell marker CXCR4,[2],~200 X
same,up-regulation of cancer stem cell marker E-cadherin (CDH1),[2],up-regulates
same,"expression of CDH1, CXCR4, OCT4, SOX2 and NANOG","[3]; T47D cultured for 10 days in serum-free minimal base media, FIG. 48",greatly up-regulated
same,"expression of BRD4, JMJD6, MBD3 and CHD4","[3]; T47D, FIG. 49",similarly down-regulated
